Results from the supplement of paper PMC10065799, “High-throughput profiling of sequence recognition by tyrosine kinases and SH2 domains using bacterial peptide display” (eLife, 2023).

Key:
[1] = test system: AncSZ; assay: phosphorylation enrichment, bacterial display (enrichment ratio); higher = better substrate or ligand; peptides without Tyr show the background
[2] = molecular target: EPHB1 (UniProt P54762); assay: as above
[3] = molecular target: EPHB2 (UniProt P29323); assay: as above
[4] = molecular target: FGFR1 (UniProt P11362); assay: as above
[5] = molecular target: FGFR3 (UniProt P22607); assay: as above
[6] = test system: Fer (mouse); assay: as above
[7] = molecular target: Fes (UniProt P07332); assay: as above
Fes, sequence (P07332 whole entry, looked up): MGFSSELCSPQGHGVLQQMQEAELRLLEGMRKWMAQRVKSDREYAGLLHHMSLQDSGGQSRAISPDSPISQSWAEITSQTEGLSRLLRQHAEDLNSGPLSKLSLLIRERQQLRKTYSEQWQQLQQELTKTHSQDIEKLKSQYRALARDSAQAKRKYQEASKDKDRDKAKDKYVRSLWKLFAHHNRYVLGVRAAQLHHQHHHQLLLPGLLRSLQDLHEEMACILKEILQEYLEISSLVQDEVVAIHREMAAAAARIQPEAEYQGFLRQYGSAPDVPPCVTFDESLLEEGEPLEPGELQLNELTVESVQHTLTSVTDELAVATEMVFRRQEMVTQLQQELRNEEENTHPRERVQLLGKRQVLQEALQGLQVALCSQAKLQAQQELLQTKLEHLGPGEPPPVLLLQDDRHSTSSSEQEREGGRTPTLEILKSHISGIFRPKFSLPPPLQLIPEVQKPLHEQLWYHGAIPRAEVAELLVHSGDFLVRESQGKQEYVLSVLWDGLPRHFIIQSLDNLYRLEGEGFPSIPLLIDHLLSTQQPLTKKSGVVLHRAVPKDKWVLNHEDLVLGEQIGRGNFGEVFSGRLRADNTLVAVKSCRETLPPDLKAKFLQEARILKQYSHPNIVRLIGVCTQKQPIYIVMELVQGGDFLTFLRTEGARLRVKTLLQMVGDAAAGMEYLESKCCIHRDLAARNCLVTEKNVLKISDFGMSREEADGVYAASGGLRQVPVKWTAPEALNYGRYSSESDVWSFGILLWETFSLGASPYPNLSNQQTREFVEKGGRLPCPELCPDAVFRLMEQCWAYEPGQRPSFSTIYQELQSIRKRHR

[8] = molecular target: Fyn (UniProt P06241); assay: as above
Fyn, sequence (P06241 whole entry, looked up): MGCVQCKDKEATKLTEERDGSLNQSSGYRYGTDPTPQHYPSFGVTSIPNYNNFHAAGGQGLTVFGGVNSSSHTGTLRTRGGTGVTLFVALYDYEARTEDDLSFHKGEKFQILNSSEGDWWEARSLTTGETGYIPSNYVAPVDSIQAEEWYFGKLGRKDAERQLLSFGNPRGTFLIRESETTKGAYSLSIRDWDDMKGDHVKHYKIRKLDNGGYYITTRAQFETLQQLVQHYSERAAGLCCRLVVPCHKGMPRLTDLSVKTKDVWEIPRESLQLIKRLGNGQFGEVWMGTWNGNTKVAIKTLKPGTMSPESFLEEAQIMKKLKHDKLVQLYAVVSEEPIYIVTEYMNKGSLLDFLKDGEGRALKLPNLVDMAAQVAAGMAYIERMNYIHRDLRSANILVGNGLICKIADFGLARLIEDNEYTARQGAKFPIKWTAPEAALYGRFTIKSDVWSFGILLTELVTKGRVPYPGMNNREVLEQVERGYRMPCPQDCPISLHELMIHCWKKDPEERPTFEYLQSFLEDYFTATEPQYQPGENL

[9] = molecular target: Hck (UniProt P08631); assay: as above
Hck, sequence (P08631 whole entry, looked up): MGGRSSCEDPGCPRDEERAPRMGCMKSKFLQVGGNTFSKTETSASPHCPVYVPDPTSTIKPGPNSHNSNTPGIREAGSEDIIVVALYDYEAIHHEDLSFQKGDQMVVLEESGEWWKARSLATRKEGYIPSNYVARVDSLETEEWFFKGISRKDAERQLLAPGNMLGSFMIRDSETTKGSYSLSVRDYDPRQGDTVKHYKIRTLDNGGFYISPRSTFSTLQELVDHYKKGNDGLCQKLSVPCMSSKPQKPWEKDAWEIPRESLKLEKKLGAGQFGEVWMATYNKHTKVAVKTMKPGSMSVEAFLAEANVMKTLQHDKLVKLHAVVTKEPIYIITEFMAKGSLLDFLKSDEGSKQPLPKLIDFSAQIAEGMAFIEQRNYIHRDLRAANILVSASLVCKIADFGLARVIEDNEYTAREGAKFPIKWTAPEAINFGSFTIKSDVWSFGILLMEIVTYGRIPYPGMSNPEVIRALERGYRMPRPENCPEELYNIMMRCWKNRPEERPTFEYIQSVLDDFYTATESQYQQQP

[10] = molecular target: Jak2 (UniProt O60674); assay: as above
Jak2, sequence (O60674 whole entry, looked up): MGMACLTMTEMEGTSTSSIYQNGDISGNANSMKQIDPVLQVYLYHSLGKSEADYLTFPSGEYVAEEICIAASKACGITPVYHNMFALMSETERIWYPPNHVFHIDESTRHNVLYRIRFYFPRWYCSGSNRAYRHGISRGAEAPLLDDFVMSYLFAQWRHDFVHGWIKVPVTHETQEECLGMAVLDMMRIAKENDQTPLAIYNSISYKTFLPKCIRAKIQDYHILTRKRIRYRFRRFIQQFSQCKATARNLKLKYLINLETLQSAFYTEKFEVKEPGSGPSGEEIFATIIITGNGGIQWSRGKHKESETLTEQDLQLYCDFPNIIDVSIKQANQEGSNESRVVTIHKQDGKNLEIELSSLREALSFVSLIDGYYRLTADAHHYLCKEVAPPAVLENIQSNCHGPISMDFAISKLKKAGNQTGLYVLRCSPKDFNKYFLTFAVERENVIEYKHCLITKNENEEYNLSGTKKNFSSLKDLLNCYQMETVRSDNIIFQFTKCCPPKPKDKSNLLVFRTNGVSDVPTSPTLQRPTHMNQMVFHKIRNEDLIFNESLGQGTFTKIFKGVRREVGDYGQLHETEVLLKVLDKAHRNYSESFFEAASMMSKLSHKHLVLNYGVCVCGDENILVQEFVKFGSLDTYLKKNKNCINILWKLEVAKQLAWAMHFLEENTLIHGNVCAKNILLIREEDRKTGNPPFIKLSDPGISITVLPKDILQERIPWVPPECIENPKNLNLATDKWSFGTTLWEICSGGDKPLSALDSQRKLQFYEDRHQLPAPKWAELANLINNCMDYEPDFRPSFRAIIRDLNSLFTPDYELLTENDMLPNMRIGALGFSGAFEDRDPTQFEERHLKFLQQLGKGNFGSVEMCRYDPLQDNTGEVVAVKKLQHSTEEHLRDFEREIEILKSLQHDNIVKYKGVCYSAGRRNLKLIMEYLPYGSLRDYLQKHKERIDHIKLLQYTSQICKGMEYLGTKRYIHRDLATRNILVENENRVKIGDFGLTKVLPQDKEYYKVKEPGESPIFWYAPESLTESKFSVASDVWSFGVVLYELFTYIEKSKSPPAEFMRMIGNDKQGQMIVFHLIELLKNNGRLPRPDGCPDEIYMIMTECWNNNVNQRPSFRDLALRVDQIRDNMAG

[11] = molecular target: MERTK (UniProt Q12866); assay: as above
[12] = test system: c-Abl (mouse); assay: as above
[13] = test system: c-Src; assay: as above
[14] = molecular target: Grb2 SH2 (UniProt P62993); assay: SH2 binding enrichment of the phosphorylated peptide, bacterial display (enrichment ratio); higher = better substrate or ligand; peptides without Tyr show the background
[15] = molecular target: SHP2-C SH2; assay: as above
[16] = molecular target: c-Src SH2; assay: as above
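Throughout, for SH2 binding enrichment of the phosphorylated peptide, bacterial display: peptide library displayed on the E. coli surface as eCPX fusions, selected cells deep-sequenced, score is each peptide's frequency after selection divided by its frequency in the input.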
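Throughout, for phosphorylation enrichment, bacterial display: 11-residue human phosphosite peptides and single-mutation variants displayed on the E. coli surface, counted by deep sequencing, each peptide's frequency after selection divided by its frequency in the unselected input library; frequency after pTyr selection over input frequency; kinase dosed for 20-30% of maximal phosphorylation in three min.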

EPHB1, sequence (P54762 whole entry, looked up): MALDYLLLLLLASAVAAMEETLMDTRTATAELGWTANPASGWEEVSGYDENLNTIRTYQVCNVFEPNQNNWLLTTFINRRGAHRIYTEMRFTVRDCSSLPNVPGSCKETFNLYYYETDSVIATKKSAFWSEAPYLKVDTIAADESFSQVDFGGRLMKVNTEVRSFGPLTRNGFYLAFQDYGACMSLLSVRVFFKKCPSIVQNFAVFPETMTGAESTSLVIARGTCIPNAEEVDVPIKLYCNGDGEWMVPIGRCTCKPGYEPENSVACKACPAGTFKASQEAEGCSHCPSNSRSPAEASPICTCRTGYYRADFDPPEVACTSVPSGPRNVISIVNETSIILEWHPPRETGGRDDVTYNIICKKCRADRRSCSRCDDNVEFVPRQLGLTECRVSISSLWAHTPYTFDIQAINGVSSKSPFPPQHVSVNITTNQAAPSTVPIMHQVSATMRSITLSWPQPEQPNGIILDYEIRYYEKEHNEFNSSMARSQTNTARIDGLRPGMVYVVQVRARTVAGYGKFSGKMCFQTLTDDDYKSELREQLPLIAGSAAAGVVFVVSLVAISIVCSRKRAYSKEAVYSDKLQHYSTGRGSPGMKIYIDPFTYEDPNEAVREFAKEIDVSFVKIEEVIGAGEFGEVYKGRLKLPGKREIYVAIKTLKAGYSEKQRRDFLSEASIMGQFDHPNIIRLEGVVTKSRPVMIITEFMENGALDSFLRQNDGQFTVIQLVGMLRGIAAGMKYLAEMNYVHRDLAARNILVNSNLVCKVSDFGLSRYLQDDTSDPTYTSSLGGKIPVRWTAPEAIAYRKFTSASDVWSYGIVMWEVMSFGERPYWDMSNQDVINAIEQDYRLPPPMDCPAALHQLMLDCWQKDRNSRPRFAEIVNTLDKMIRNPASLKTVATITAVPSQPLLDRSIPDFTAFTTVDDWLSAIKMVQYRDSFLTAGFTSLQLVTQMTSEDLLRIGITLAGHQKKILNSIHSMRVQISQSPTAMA
EPHB2, sequence (P29323 whole entry, looked up): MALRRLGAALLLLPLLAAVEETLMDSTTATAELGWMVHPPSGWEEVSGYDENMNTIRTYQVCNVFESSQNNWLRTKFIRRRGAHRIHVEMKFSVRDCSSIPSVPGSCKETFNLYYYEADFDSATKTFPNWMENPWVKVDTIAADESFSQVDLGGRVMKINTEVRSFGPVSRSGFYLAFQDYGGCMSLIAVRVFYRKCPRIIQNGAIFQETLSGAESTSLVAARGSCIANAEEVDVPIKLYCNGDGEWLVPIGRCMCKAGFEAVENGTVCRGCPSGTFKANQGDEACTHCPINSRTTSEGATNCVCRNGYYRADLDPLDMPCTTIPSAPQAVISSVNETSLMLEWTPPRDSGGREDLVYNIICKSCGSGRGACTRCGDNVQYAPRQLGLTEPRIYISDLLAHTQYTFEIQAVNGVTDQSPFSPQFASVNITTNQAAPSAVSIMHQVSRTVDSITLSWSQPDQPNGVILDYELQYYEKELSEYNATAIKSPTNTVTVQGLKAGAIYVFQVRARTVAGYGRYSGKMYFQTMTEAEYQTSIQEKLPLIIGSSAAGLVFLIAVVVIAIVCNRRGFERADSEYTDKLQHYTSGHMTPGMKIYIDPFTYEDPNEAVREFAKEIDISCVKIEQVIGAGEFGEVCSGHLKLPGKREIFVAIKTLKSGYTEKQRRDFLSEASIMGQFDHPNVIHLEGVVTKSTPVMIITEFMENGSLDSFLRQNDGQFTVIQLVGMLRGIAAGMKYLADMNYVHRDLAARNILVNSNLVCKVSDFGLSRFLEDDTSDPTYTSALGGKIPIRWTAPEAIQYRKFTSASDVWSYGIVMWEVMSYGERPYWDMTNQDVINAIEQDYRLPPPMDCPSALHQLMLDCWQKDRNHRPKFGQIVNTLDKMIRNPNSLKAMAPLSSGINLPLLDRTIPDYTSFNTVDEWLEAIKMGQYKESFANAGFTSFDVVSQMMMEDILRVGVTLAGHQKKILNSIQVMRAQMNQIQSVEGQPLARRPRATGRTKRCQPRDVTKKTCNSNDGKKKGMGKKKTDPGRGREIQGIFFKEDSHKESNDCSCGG

| Sequence | SH2 binding enrichment [14] | SH2 binding enrichment [15] | SH2 binding enrichment [16] | phosphorylation enrichment [1] | phosphorylation enrichment [2] | phosphorylation enrichment [3] | phosphorylation enrichment [4] | phosphorylation enrichment [5] | phosphorylation enrichment [6] | phosphorylation enrichment [7] | phosphorylation enrichment [8] | phosphorylation enrichment [9] | phosphorylation enrichment [10] | phosphorylation enrichment [11] | phosphorylation enrichment [12] | phosphorylation enrichment [13] |
| --- | --- | --- | --- | --- | --- | --- | --- | --- | --- | --- | --- | --- | --- | --- | --- | --- |
| AESPEHVHMFT [FAM111A_Y511_Y511H_YF] | 0.786 | 0.54 | 0.421 | 0.746 | 0.566 | 0.569 | 0.433 | 0.614 | 0.431 | 1.01 | 0.446 | 0.447 | 0.754 | 0.416 | 0.661 | 0.36 |
| YAFQLYDLDRD [CHP2_Y123] | 0.879 | 2.55 | 1.58 | 1.24 | 1.69 | 0.765 | 1.89 | 1.55 | 1.12 | 1.17 | 2.66 | 1.73 | 0.969 | 2.83 | 0.768 | 3.19 |
| FKEIVYAVSSD [DCX_Y70_G67E] | 0.913 | 0.656 | 0.742 | 1.32 | 0.455 | 0.644 | 0.723 | 0.809 | 0.587 | 1.4 | 3.23 | 2.25 | 0.921 | 1.93 | 13.7 | 3.74 |
| LIDSSYLTRTA [GREB1L_Y1063] | 0.844 | 0.714 | 0.426 | 0.748 | 0.43 | 0.746 | 0.507 | 0.44 | 0.905 | 0.668 | 0.571 | 0.425 | 0.651 | 0.527 | 0.634 | 0.489 |
| YRQLPYCPSVE [CTNND2_Y508_Q507P] | 0.686 | 0.585 | 0.494 | 1.51 | 0.692 | 0.747 | 1.48 | 1.41 | 0.804 | 1.53 | 0.647 | 1.09 | 1.41 | 0.728 | 5.88 | 0.881 |
| GGGMFYPLDLF | 1.07 | 0.749 | 0.532 | 0.942 | 0.503 | 0.454 | 0.405 | 0.693 | 0.405 | 1.1 | 0.453 | 0.499 | 0.891 | 0.372 | 0.627 | 0.388 |
| SIKDKYVTAFY [KCNH2_Y611_L615F] | 0.607 | 0.525 | 0.461 | 0.578 | 0.488 | 0.439 | 0.483 | 0.475 | 0.401 | 0.67 | 0.428 | 0.414 | 0.523 | 0.358 | 0.391 | 0.383 |
| AVNNFYAAKKT [CCDC178_Y422_D420N] | 0.965 | 0.745 | 0.518 | 0.708 | 0.373 | 0.352 | 0.52 | 0.402 | 0.369 | 0.58 | 0.372 | 0.428 | 0.566 | 0.475 | 0.542 | 0.463 |

The next lines start with results.

| SH2 binding enrichment [14] | SH2 binding enrichment [15] | SH2 binding enrichment [16] | Sequence | phosphorylation enrichment [1] | phosphorylation enrichment [2] | phosphorylation enrichment [3] | phosphorylation enrichment [4] | phosphorylation enrichment [5] | phosphorylation enrichment [6] | phosphorylation enrichment [7] | phosphorylation enrichment [8] | phosphorylation enrichment [9] | phosphorylation enrichment [10] | phosphorylation enrichment [11] | phosphorylation enrichment [12] | phosphorylation enrichment [13] |
| --- | --- | --- | --- | --- | --- | --- | --- | --- | --- | --- | --- | --- | --- | --- | --- | --- |
| 0.447 | 0.531 | 0.414 | RIPFRYPKEFQ [IDS_Y234_H229R] | 0.946 | 0.571 | 0.646 | 0.78 | 1.07 | 0.627 | 1.14 | 0.56 | 1.07 | 1.48 | 0.637 | 0.998 | 1.1 |
| 0.937 | 0.983 | 0.522 | DLVHPYVHKIL [SF3B1_Y570_R568H] | 0.717 | 0.468 | 0.51 | 0.457 | 0.567 | 0.497 | 0.841 | 0.495 | 0.432 | 1.03 | 0.435 | 0.655 | 0.402 |
| 0.776 | 0.604 | 0.447 | QKMADYSNKLY [PDPR_Y104] | 0.61 | 0.492 | 0.455 | 0.436 | 0.735 | 0.435 | 0.717 | 0.515 | 0.692 | 0.579 | 0.535 | 0.555 | 0.509 |
| 0.924 | 0.62 | 0.462 | SSSGGYGGGYG [KRT19_Y61_A60G] | 0.456 | 0.326 | 0.337 | 0.408 | 0.335 | 0.333 | 0.534 | 0.352 | 0.379 | 0.479 | 0.342 | 0.374 | 0.377 |
| 0.707 | 0.595 | 0.493 | DSILVYQGKEQ [USH2A_Y1909] | 0.717 | 0.451 | 0.43 | 0.434 | 0.533 | 0.414 | 0.761 | 0.433 | 0.621 | 0.734 | 0.333 | 0.536 | 0.515 |
| 0.814 | 1.1 | 0.588 | EYITRYIDSLK [PSMA7_Y110_A112D] | 0.829 | 0.396 | 0.552 | 0.528 | 0.572 | 0.461 | 0.832 | 0.504 | 0.558 | 0.677 | 0.395 | 0.498 | 0.479 |
| 1.9 | 1.61 | 1.34 | LLRLAYLADIF [ZBED5_Y476] | 0.872 | 0.69 | 0.677 | 0.64 | 0.636 | 0.745 | 1.02 | 0.457 | 0.54 | 0.99 | 0.432 | 0.765 | 0.419 |
